How the values were obtained:
IkBa-24pp (SEQ ID NO: 1) = molecular target: T1, IkBa-24pp (SEQ ID NO: 1) (Homo sapiens, UniProt P25963); assay: Single-well 4-spot assay for multiple peptide-protein interactions; type: binding; settings: for ECL signal, spot 1 IkBa-24pp: 4-spot plate
T1 construct: two phosphoserines in the DSGLDS motif (chemical modification); purchased New England Peptide, Fitchburg Mass; host or cells: chemical synthesis
Excerpt: Four phosphopeptides and their cognate binding proteins (Table 14) were selected for an integrated assay of multiple peptide-protein interaction in 4-spot Multi-Array plates. The IkBa-24pp peptide and its binding protein, βTRCP, are described in Example 10. The remaining peptides are derived from the carboxyl terminus of the EGF receptor. These phosphotyrosine containing peptides are recognized by different adaptor or effecter proteins of the receptor tyrosine kinase signaling pathway.
These four peptides were coupled to BSA carrier protein through cystine residue. After purification on PD-10 gel filtration columns, the peptide-BSA conjugates were then deposited on the assay domains of a 4-spot multi-array IPR plate (i.e., in one of the four exposed regions of working electrode defined by the dielectric layer) with an automated micro-dispensing system (Bio-Dot Dispenser, Bio-Dot, Irvine Calif.). Typically about 120 fmole of peptide:BSA conjugate in 0.25 μl was deposited on each spot of a 4-spot multi-array IPR plate. These plates are dried then used or stored under desiccated conditions. A few hours prior to usage the plates were rehydrated and blocked with 3% BSA in PBS. EST clones encoding βTRCP1 (3491843), βTRCP2 (4237375), mCBP (3872466) Grb2 (4398016) and PLCγ (4419252) (Incyte, Palo Alto, Calif.), were isolated using a QIA-prep column (QIAGEN, Los Angeles, Calif.) and used to program protein expression in a Quick coupled SP6 TnT reaction supplemented with Transcend biotin-tRNA label following the manufactures protocol (Promega, Madison Wis.). The in vitro translated and biotin-labeled proteins were then assayed in the 4-spot multi-array IPR plates under conditions described in Example 10. […] By contrast spots 2–4 in the same wells gave low ECL signals. Thus, in this assay format, each peptide not only serves as the capture agent for assaying specific interaction with its binding protein, but also at the same time serves as a control for other peptide-protein interaction to be determined in the same well. […]

Epha7 = molecular target: T2, Epha7 (Mus musculus, UniProt Q61772); assay: Kinase inhibitor profiling, autophosphorylation; type: biochemical
T2 construct: autophosphorylation activity from full-length clones Spleen Tyrosine Kinase (SYK) and Eph receptor-A7 (EphA7); host or cells: rabbit reticulocyte lysate, TnT coupled in vitro transcription/translation (cell-free)
T2 sequence (Q61772 28-998): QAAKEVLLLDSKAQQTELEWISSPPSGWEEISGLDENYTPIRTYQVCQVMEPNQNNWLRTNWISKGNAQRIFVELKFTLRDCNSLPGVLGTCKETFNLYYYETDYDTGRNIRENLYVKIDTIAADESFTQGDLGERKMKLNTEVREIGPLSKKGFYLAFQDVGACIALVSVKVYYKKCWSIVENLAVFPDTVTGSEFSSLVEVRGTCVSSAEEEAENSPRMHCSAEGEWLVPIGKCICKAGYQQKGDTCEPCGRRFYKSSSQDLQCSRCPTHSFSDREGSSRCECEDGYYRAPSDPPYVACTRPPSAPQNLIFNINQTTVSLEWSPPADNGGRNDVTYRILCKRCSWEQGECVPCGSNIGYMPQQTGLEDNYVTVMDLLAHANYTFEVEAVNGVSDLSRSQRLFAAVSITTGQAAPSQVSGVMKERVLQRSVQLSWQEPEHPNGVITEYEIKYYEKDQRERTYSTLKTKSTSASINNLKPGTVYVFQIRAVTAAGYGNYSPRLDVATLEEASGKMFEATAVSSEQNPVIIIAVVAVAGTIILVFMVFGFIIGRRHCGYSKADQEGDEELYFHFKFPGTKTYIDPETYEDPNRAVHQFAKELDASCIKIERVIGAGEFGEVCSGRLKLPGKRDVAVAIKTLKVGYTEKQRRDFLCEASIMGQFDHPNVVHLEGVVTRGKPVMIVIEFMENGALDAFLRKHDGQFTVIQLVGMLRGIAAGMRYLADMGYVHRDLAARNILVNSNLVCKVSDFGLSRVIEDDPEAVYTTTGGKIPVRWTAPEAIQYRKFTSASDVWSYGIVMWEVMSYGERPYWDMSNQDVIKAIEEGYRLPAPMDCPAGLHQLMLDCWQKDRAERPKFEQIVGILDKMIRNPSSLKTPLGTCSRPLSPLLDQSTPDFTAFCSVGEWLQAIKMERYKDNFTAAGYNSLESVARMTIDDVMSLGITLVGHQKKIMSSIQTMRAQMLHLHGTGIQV

T1 sequence (P25963 with tags, fused parts or gaps limits assumed): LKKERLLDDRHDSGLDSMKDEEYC

ECL signal, spot 1 IkBa-24pp (IkBa-24pp (SEQ ID NO: 1))	fold higher ECL signal from spot 1 than with TnT mixtures containing no exogenous DNA (IkBa-24pp (SEQ ID NO: 1); spot 1 (IkBa-24pp-BSA conjugate))	Compound	Inhibition specificity towards Autophosphorylation at 10X IC50, Epha7 (Epha7)
2466	100 fold	3491843: IMAGE clone protein: βTRCP1 [compound 3491843]	–
446	–	3872466: IMAGE clone protein: mCBP [compound 3872466]	–
–	–	Cc1cc2ncc(-c3ccc(O)c(O)c3)nc2cc1C [AG-1433]	H (high inhibition (“H”=less than 25% of the activity remaining))
–	–	COc1c(C=O)c(O)cc2c1C(=O)c1ccccc1C2=O [Damnacanthal]	H (high inhibition (“H”=less than 25% of the activity remaining))
